Experimental findings from article PMC6859848 (2019) are described below.

Like-named read-outs stand apart in the source and are kept apart here.

For data set [1], the system named is rG1 (5'-Alexa Fluor 647) (RNA, G4) ACCGGGGCAGGGGAAGAGGGGG
Nature of the data set: fluorescence quenching titration. Conditions: K+ 100 mM (KCl); 10 mM Tris, 5% DMSO; 100 nM RNA; single site fit; apparent.

The target in data set [2] is T1, HNRNPH1 qRRM2-3 (qRRM2-GYR-qRRM3) (UniProt P31943 103-381).
T1 sequence: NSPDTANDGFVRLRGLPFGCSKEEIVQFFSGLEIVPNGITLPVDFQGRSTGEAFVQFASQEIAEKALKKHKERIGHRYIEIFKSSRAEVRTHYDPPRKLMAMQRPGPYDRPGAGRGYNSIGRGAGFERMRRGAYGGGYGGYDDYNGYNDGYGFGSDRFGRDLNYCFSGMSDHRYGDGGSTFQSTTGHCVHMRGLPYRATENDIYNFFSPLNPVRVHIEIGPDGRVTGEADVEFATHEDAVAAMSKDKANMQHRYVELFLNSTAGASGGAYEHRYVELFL
The data set can be described thus: SPR. (Surface plasmon resonance follows binding to a sensor surface in real time, without labels.)

For data set [3], the target named is T2, HNRNPH1 full-length (UniProt P31943 1-449).
T2 sequence: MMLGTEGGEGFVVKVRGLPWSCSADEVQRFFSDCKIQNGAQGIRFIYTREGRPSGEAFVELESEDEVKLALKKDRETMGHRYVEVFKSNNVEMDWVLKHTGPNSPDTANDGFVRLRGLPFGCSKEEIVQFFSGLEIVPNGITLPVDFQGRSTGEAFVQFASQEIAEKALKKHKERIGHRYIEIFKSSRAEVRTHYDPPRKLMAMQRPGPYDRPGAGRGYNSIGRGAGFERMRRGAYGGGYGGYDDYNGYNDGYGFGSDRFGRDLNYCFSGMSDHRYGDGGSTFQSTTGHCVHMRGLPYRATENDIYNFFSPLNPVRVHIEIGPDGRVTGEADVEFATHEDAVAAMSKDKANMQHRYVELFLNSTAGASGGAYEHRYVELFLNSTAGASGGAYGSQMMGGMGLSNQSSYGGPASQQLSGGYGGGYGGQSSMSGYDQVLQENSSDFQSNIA
Nature of the data set: SPR.

Data set [4] concerns the target T3, HNRNPH1 qRRM3 (UniProt P31943 277-381).
T3 sequence: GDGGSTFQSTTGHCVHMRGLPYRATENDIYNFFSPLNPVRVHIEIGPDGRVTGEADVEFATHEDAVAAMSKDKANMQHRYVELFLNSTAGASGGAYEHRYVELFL
The data set can be described thus: SPR.

In data set [5] the target is T4, HNRNPH1 qRRM1-2 (UniProt P31943 1-194).
T4 sequence: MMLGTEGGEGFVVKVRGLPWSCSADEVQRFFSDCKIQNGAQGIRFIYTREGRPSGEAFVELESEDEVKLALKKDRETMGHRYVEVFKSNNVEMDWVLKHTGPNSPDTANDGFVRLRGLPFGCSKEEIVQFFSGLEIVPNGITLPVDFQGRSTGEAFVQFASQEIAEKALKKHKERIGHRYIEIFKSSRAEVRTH
The data set can be described thus: SPR.

The target in data set [6] is T5, HNRNPH1 delta1-103 (UniProt P31943 104-449, del1-103).
T5 sequence: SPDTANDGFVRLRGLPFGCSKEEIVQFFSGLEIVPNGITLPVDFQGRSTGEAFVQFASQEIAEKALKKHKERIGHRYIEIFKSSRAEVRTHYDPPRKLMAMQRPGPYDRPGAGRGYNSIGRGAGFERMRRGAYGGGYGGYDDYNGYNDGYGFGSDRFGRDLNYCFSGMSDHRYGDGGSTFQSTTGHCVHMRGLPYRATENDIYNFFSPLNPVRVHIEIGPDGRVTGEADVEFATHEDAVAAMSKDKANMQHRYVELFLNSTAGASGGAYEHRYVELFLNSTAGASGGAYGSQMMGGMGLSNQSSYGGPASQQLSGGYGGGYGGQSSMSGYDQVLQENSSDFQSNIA
The data set can be described thus: SPR.

The target in data set [7] is T6, HNRNPH1 qRRM1 (UniProt P31943 1-102).
T6 sequence: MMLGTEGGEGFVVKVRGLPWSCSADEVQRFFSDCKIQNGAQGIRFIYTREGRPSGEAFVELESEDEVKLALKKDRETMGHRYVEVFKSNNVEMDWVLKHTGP
The data set can be described thus: SPR.

For data set [8], the target named is T7, HNRNPH1 qRRM2 (UniProt P31943 103-194).
T7 sequence: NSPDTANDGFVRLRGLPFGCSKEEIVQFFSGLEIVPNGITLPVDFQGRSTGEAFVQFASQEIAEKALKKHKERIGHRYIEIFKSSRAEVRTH
Nature of the data set: SPR.

The target in data set [9] is T2, HNRNPH1 full-length. The data set can be described thus: antibody-based RNA binding assay.
Data set [10] concerns the target T2, HNRNPH1 full-length. The data set can be described thus: competition.
For data set [11], the target named is T2, HNRNPH1 full-length. The data set can be described thus: EMSA.
Data set [12] addresses T2, HNRNPH1 full-length. Nature of the data set: EMSA. The source holds these as a separate data set. In general terms: Mobility shift assays separate free from complexed probe on a gel.

For the molecule `NCCOc1cc(C(=O)Nc2cc(OCCN)c3ccccc3n2)nc(C(=O)Nc2cc(OCCN)c3ccccc3n2)c1`, in [1], the “KD^app” value is 4600 nM.

B1: rG1 5'-biotin (SPR) (structured_RNA)
RNA: ACCGGGGCAGGGGAAGAGGGGG
What is called Kd is the equilibrium constant for the complex coming apart. Read a low Kd as a tighter complex. As to B1, the Kd in [2] turned out to be 97 nM; in data set [3], 4.8 nM; in data set [4] it was 315 nM; in data set [5], 1.5 nM; in data set [6], 2.4 nM; in data set [7], 30 nM. The molecule further had a dissociation constant (Kd) in [8] of 22 nM.

B2: rG1 3'-biotin (structured_RNA)
RNA: ACCGGGGCAGGGGAAGAGGGGGAUU
On to B2, for which the Kd in [9] was 30 ± 2 nM.

B3: rG1 nonbiotinylated competitor (structured_RNA)
RNA: ACCGGGGCAGGGGAAGAGGGGGAUU
Usually IC50 stands for the concentration that gives 50% inhibition. A higher IC50 goes with a need for much substance. B3 displayed an IC50 in [10] of 84 nM.

B4: rG2b (ssRNA)
RNA: GUGGGCGGGGAGGAGGACGCGGUGGAAU
As for B4, in data set [11], the binding result was “binds”.

B5: Linker (ssRNA)
RNA: GAUCGUGGAGGCAUGAGCAGAGGUG
As to B5, the binding result in data set [12] is “no binding”.

B6: rG2a (ssRNA)
RNA: AGCAGAGGUGGGCGGGGAGGAGGAC
With B6, in [11], the binding result is recorded as “binds”.
